Data: a protein production outcome set (Wang et al. 2014)

Test: label from the status in PepcDB records

In the case of “MPSFRRSVAAVVTALPLIAGGCAHRPAVETASPEAVQWNLSDGAETTFYYLMLDQAARSDNTRDAIEAIENLIRLSPTARVYNDSGSFLLSRKEPDLARDILTRGVAAHPDDLGLTLLLAESYLDLDRNDEAIALLRAYNAKHPKDDEARQELAQLLVKTRRYEEADKLILSIGETSRTSLLRYYHARALMGLNRLTEATAQLRKAVKASPDFLEAWAELAYVYELRKNYVEAEKIYEQILALDEGNQDVWLRLVAINIKLNNPVKAYELARQGPETFGFMLTAATLFLDDRFFEQAEGLLLAVKDSPGAPEEVYFFLAVLAYEGQRDTDATLSWLLEVRPTNKYYDRALRLRSQLLYEKGDLEAALRTAREGRETFPEQRDFREMEAQLLVNMGRSEEALRVIDKAADRWPDDSGLLFMRALILDDRGAKDAAFAAMEEVIKASPNHAQALNYVGYTLAEQERDLTRAVSLLERANTLSPDNPFILDSLAWAYFKAGRIPEAWKAISRAIELNAPDPIIWEHYGDIATAMGQKNTARRAYRKALSMNPQNPDAIKAKLDKK”, the protein production was “failed”.

With “MPGFLTADLIRARLAPKDFQRGEEYLKDGRVLKAEWVADDEISGQVAGSAGRRYVQTITLENGLGGLSIVGYCSCPVGFACKHVAAVLLTLAREAEPVVPAWDGSFGARPAQAAVSEPTLDPALAEWIAAVAGFEEVGDPEAYPPAIRHRLIYVVGPQGEGGVPQNGEGRSESRGGGRVSAEIEVTLWSIAVLKDGQMSSVERRILSADALVRSPARPAYLRPSDLALVPRLAALRAPGGGNALLLPQISGSELFAAMVASGRCRWGGPDGPTLYPGAARRAKLVWRSDGEGWQRPAIEPEAMAPEAADPETAQPDIGQPYIAQPAIPEIGALDGEAVEAPTRTDPDDASPAPEDGESGQSPEAEAWDLRALPIEPPAYVDPRSGETGPLDLGLDPRLAARLLSAPPIPPTSVDAVRSRLGALLPAAVPVLPAPIDAQPLSVAPQPILRLLALRAVPRMRGAEMPGETTQALVARPCFAYDSVILPADSSEPAPLRMVGASLMRIERDFAAEGTALRQLDRIGPLRVAEALGRVRVEGGISADRLIAPPFLPRGEERERAVDFLRDGVPDLEEAGWRIEIDPDFPVRPVVADSQDWWGGLNAVGGLEGTVGGWLSVGLGVTIDGERVDLLPALLTLLGEGEDLVEREEDELLYLPLGDGRVLPVAVRRLRPIFHALHAVAVPDERAGPGVRLSGRDLGPLALLEEAGKPLGVVWEGAEGARDIARRLAVVGLREAVAPPKGLVGSLRAYQNEGLDWLQFLRANNLGGILADDMGLGKTLQTLAHILVEKESGRLNDPVLIVAPTSVLGAWRREAAQFAPGLRLVVLHGPERAAGFSQMADQDVVVTSYALVRHDLEVLKAQPWHMLVLDEAQTIRNPQTVQYKAVAALKARHRLFLTGTPLENHLGDLWALMDLLMPGLLGDGATFRRVFRGPIEKRGDGPRRRALAVRVRPFILRRTKDEVATDLPAKTEMIDMVELEGGQRDLYEAVRLAAHKAIREVLAEKGLARGRIHILAALTRLRQVCCDPRLVKGGPRKPPPSAKLDRLEEMLRDLVDEGRRTLVFSAFPSMLALVEERLAAASIPWVSLTGETRDRDTPVTRFQSGAVPVFLISLKAGGTGLTLTAADTVIHYDPWWNPAVEAQATDRAHRIGQDKPVFVHKLVAAGTVEERILALQDRKRGLLDGLFDGEAGPSSLLSEEVIEEILRPLG” the protein production was “failed”.

For “LDPGLQPGQFSADEAGAQLFAQSYQSSAEQVLFQSVAASWAHDTNITAENARRQEEAALLSQEFAEAWGQKAKELYEPIWQQFTDPQLRRIIGAVRTLGSANLPLAKRQQYNALLSQMSRIYSTAKVCLPQKTATCWSLDPDLTNILASSRSYAMLLFAWEGWHNAAGIPLKPLYEDFTALSNEAYKQDGFTDTGAYWRSWYNSPTFEDDLEHLYQQLEPLYLNLHAFVRRALHRRYGDRYINLRGPIPAHLLGDMWAQSWENIYDMVVPFPDKPNLDVTSTMLQQGWQATHMFRVAEEFFTSLELSPMPPEFWEGSMLEKPADGREVVCHASAWDFYNRKDFRIKQCTRVTMDQLSTVHHEMGHIQYYLQYKDLPVSLRRGANPGFHEAIGDVLALSVSTPEHLHKIGLLDRVTNDTESDINYLLKMALEKIAFLPFGYLVDQWRWGVFSGRTPPSRYNFDWWYLRTKYQGICPPVTRNETHFDAGAKFHVPNVTPYIRYFVSFVLQFQFHEALCKEAGYEGPLHQCDIYRSTKAGAKLRKVLRAGSSRPWQEVLKDMVGLDALDAQPLLKYFQLVTQWLQEQNQQNGEVLGWPEYQWHPPLPDNYPEGIDLVTDEAEASKFVEEYDL”, the protein production was “not failed”.

In the case of “MRAQMKQYNCHEGALPFTKSYLLRPLFNAFLMSPKPFHTTEACIGCKKCEKVCPVGNITVTDRPVWGGNCTQCLACYHVCPVHAVEYLEHHHHHH”, the protein production was “failed”.
